Assay results as given in PMC6302015.

Experiments:
[1] = target: Dopamine receptor D2 (D2R) peptide (N430-R443); test: ITC; MicroCal VP-ITC; 50 μM D2R peptide in the cell titrated with NCS-1; 25°C; 20 mM Tris-HCl pH 8.0, 150 mM NaCl, 5 mM CaCl2 and 100 μM ZnCl2; one set of sites model
[2] = target: GST-tagged N-terminal fragment of GRK1 (M1-G183) (UniProt P28327); test: pull-down; 50 μg GST-N-GRK1 immobilised on Glutathione Sepharose; 25 μM NCS-1 applied; 20 mM Tris pH 8.0, 150 mM NaCl, 1 mM DTT, 1 mM CaCl2 and 0-100 μM ZnCl2; 1 h at 4°C; bound NCS-1 detected by western blotting
Chain of UniProt P28327 (P28327 1-183): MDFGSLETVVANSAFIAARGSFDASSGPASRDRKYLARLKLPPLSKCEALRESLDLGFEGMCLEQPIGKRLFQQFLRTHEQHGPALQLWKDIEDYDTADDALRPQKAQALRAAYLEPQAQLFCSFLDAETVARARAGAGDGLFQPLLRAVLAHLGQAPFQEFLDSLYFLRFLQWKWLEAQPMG

[3] = target: Dopamine receptor D2 (D2R) peptide (N430-R443); test: ITC; MicroCal VP-ITC; 50 μM D2R peptide in the cell titrated with NCS-1 (1 mM stock, thirty 10 μl injections); 25°C; 20 mM Tris-HCl pH 8.0, 150 mM NaCl, 5 mM CaCl2; one set of sites model

- Ka [1]: 118000 M⁻¹
- Kd [1]: 8.47 µM
- dH [1]: -3.2 kcal/M
- stoichiometry N [1]: 0.508
- fold change of binding with 25 μM Zn^2+ against no Zn^2+ [2]: 2 fold
- Ka [3]: 33200 M⁻¹
- Kd [3]: 30.1 µM
- dH [3]: -3 kcal/M
- stoichiometry N [3]: 0.676
Substance: Neuronal calcium sensor-1 (recombinant myristoylated NCS-1) (from UniProt P62166 1-190) (natural protein)
